Consider four molecules from patent US20230109318A1 (OBLIQUE THERAPEUTICS, published 2023).

Substitutions are numbered along the chain they refer to. No end group written: not given here.

The target in experiment [1] is T1, isolated G13D Ab1 peptide of SEQ ID NO:5 (human).
T1 peptide: CGAGDVGKSALTI-NH2
Description: ELISA, hybridoma supernatant on dilutions of the peptide, absorbance at 405 nm.

In experiment [2] the target is T2, "wild-type" (WT) peptide having the amino acid sequence CGAGGVGKSALTI (SEQ ID NO:160).
T2 peptide: CGAGGVGKSALTI
Description: further ELISA on WT peptide; weaker than on the mutant peptide. Background: In an ELISA, binding on a coated surface is turned into a signal by an enzyme label.

The target of experiment [3] is T1, isolated G13D Ab1 peptide of SEQ ID NO:5. Description: further ELISA, mutant peptide compared with WT peptide.

B1: 7G2-1 (antibody, V domains shown)
VH: QVTLKESGPGILQPSQTLSLTCSFSGFSLSTFGMGVGWIRQPSGKGLEWLAHIWWDDDKNYNPALKSRLTISKDTSKNQVFFKIANVDTADTATYYCVQLSTMGDGGYWGQGTLVTVSA
VL: NIVMTQSPKSMSMSVGERVTLSCKASENVGTYVSWYQQKPGQSPKLLIYGASNRYTGVPDRFTGSGSGTDFILTISSVQAEDLADYHCGQSYNYPFTFGSGTKLEIK
notes: Mouse monoclonal IgG from a hybridoma, tested as hybridoma supernatant
On to B1, for which, in experiment [1], the binding result is given as “binds”.

B2: 4B8-1 (antibody, V domains shown)
VH: EVQLQQSGPERVKPGASVKMSCKASGYTFTDYSMHWVKQSHGKSLEWIGYINPNNGGASYNQKFKGKATLTVNKSSSTAYMELRSLTSEDSAVYYCARGDYYGGGYWGQGTTLTVSS
VL: ENVLTQSPAIMSASPGEKVTMTCSASSSVSYMHWYQQKSSTSPKLWIYDTSKVASGVPGRFSGSGSGNSYSLTINSMEAEDVATYYCFQGSGYPLTFGAGTKLELK
notes: as for B1
Take B2: the binding result in experiment [2] and in experiment [1] was “binds” in each case.

B3: 11D6-1 (antibody, V domains shown)
VH: EVQLQQSGPELVKPGASVKMSCKTSGYTFTDYTMHWVKQSHGKSLEWIGYINPNNGGTYYNQRFKGKATLTVSRSSSTAYIELRSLTSDDSAVYYCARGDYYGGGYWGQGTTLRVSS
VL: B2 VL with S26G, V53L, N75S, A99D
notes: as for B1
B3: the binding result in experiment [2] and in experiment [3] was “binds” throughout.

B4: 7D11-1 (antibody, V domains shown)
VH: QVQLQQPGAEFVKPGASVKLSCKASGYTFTRYWMHWVKQRPGRGLEWIGRIDPNSGGTTFNEKFKSKATLTVDKPSSTAYMQLSSLTSEDSAVYYCAREVGGYWGQGTTLTVSS
VL: B2 VL with S26G, S30D, V53L, N75S, K106R
notes: as for B1
With B4, the binding result in experiment [2] and in experiment [1] was “binds” each time.
